Data as given in the DeepSol protein solubility set.

Experiment: soluble on expression in E. coli; label from the status in PepcDB or PDB records
For “MQIEKIRDQKMKAVRVKKLSKLADEITINISGAKNALLHLIFASLIPDTKTKFTNVPITLLDYKGAKEILENVGAKVIEKDEEVTIDTAAISNETLELCGEMTSKTRCSLMLLGSLLKKKGRVKIGFPGGCSFSEKRPFDIHLNGLEALGAEVKLADDHIEVIYKEEKNAEFKMPFPSVGATMNLLMYAVTGNSEIVLENVALEPEVVTLIDYLNQCGANIDFDADSRKIKILGIMRLNGCEFEIIFDRIQAMTYAAMAYLYKTNVTITNINTQDTYSIKKPLEKLTNAGAKWEYNQANRSIKFFGKDSCIKGVDIIAAPFPHFPTDLQPIYAVMLFMANSSSTIQDTVYPERINYVYQIRKMGFNISIDNTLIKINPLKNLNDIRPAVMSVKDLRAGMACLMAGSLLDEFSTINNAHQIFRGYNNLIENMSHFMRIEILNDNV”, the “soluble on expression in E. coli” value was “not soluble”. For “MQILNKILPQVEFAIPRPSFDSLSRNKLVKKILSVFNLKQRFPQKNFGCPVNINKIRDSVIDKIKDSNSGNQLFCWMSQERTTYVSSMINRSIDEMAIHNGVVLTSDNKRNIFAAIEKKFPDIKLDEKSAQTSISHTALNEIASSGLRAKILKRYSSDMDLFNTQMKDLTNLVSSSVYDKIFNESTKVLQIEISAEVLKAVYRQSNTNLEHHHHHH”, the “soluble on expression in E. coli” value was “not soluble”. For “MQKKEKEGRRKLKYDSNDGLLPEIRRVCGFPHHISEELSARGSGKKKKQVEEEWKWPEAQICGICSSGGNILCCEQCPASFHLACIGYESSDLPDDNFYCNRCRNLPENVRLFPPEKCSPSVNPVLRVENENHRNWEAIEYHCNRLRDEEQAEKMKKDVAYGPKSEFAEIQDCFRDKNLLKALGMANPMDYTIPPEFQADRDCFSGDAMEDKRPTIMGEVCAECNLKDDWTRMLKCDFCDLIWHQKCVTPPLIHVRAYFYWMCPRHPETVIDSVLIGDEISREDRRRLYDKYADVEPSYEIFEEFCIKTEQFRMKSEVFDSEEMYYDPEEASTSFMQTVIKPRQTSRKTTGRSASKKKSNGRFFASSWDFPGLSSRETSPSRKNSRKSPDSVATERKDRVLDKIDKKRSIKLTEEEIIMSIMPVEESSRAEYLTQKMLGTDIEQSTNFFNRHSAMIDRIRAFYGNLPEKELIKLMREDLDPVETIRGGGTQSIISQNEKPYRKKLKADVEVLIQHVGLGTDSTERHFNSIGTEAFYRRCAPPVTARNVLNQKTLREVVLNSQKEAHEGAGVYEYHAEPEQLENLVLLAYEPSFESPEDRDTYFVPSMTIWSKEPICALTRKWAASGASKQAPPSSSSSEAPSVEAEVKEEVVEEEDEENEARMRRESTATSSIVYNNDTGPLEFIEENMPPPAATITEKSDPFDFSSLEMPEIHEKAETVYEAEGYYGESDDLPLDLRRTKSESDLVDRIIWPLVRSALQNFIRREDCHQMHLEHNYSSLYQTHDSDEENQPVVEVEKLITYEEYQENLYSAEFASPQTPPPIPPPPAVYYDNFSDAPRKRGRPVGSRNRKEGDTTIPKQQRKRNPQPVGRGRGRGGGRPRGSRSSRGSMDDGGGSRRHSTASDANESAELLNQPVTKQLRDEIKEIKLKYTKMMMDRGFEQAKDEYFRNRDAALSKWTPEQWKEHNEQCVAARLSSLIPYDQRYFLPTQRVLARLDLEDGDLRLPAVHLPIAIQRCVTKLGTAHDCHVRCDKLTGDAWCSVLADYHCDIVRDYYSDNFYISTLGTEAVFVDGRAVRRPRLTPFEAAEKLRTRGSSTIIPPHIKCRCQKHSDLQISRQESTGELVRCGILKLEHGARIQIGCVAFIFSRI”, the “soluble on expression in E. coli” value was “not soluble”. With “MQKQAELYRGKAKTVYSTENPDLLVLEFRNDTSAGDGARIEQFDRKGMVNNKFNYFIMSKLAEAGIPTQMERLLSDTECLVKKLDMVPVECVVRNRAAGSLVKRLGIEEGIELNPPLFDLFLKNDAMHDPMVNESYCETFGWVSKENLARMKELTYKANDVLKKLFDDAGLILVDFKLEFGLYKGEVVLGDEFSPDGSRLWDKETLEKMDKDRFRQSLGGLIEAYEAVARRLGVQLD” the “soluble on expression in E. coli” value was “soluble”. In the case of “MQKSKRNAKKKAVSTREKSARSSRGTNKSQRSARSKMAKPRTAETREDAYSCHRTMEEKSTNQQYSALSVRSETTSKVKKLPSKLDASLSARKKGKKESNEEDKKMRDSERQKREKKEVPKEMRQSMMGSVFEEIEGPVSPAPLEKDENKMEWKIDVDPVVLTGDQRMSDVLGKMKDLKKNSGWKKCKVLKANEKTPDNDDEPTEESIYLSARVLQLVKMESLISKEVSKEDQEILRGYCRSNDHKDKVEPIFEAIAVSILEKVASKNEFIRNVSIPGQLRMFAVDENKSKFSTMALLIVRCDLFYYSWNKPALDDEDQLDPTWANMTRRPSVTPPDSQ”, the “soluble on expression in E. coli” value is reported as “not soluble”. For “MQKSYGVALESPTGSGKTIMALKSALQYSSERKLKVLYLVRTNSQEEQVIKELRSLSSTMKIRAIPMQGRVNMCILYRMVDDLHEINAESLAKFCNMKKREVMAGNEAACPYFNFKIRSDETKRFLFDELPTAEEFYDYGERNNVCPYESMKAALPDADIVIAPYAYFLNRSVAEKFLSHWGVSRNQIVIILDEAHNLPDIGRSIGSFRISVESLNRADREAQAYGDPELSQKIHVSDLIEMIRSALQSMVSERCGKGDVRIRFQEFMEYMRIMNKRSEREIRSLLNYLYLFGEYVENEKEKVGKVPFSYCSSVASRIIAFSDQDEEKYAAILSPEDGGYMQAACLDPSGILEVLKESKTIHMSGTLDPFDFYSDITGFEIPFKKIGEIFPPENRYIAYYDGVSSKYDTLDEKELDRMATVIEDIILKVKKNTIVYFPSYSLMDRVENRVSFEHMKEYRGIDQKELYSMLKKFRRDHGTIFAVSGGRLSEGINFPGNELEMIILAGLPFPRPDAINRSLFDYYERKYGKGWEYSVVYPTAIKIRQEIGRLIRSAEDTGACVILDKRAGQFRKFIPDMKKTSDPASDIYNFFISAQAREKYGA”, the “soluble on expression in E. coli” value was “soluble”. For “MQKYTIVDLNEKAEAELAAIAGELGIANAGSMPKQELIYKILDEQAISVAGVRKEKQKTTEDRHTERRKPGRPRKNAEEEAPESEDVAAAPAEPNDEEAQAKRKRGRPRKAAEEIAEETREDVQQLVALAAAEETNATEKESAGRKPAAKTSTASPAKAPAKALPRPAETTPRVAPSPPPTTPVSEPAKDDAKPETPAPPPAIESITTTPAAGAVDEGGARRLVFRHKNSSSVLDQVLPYSSPQPPQRPKPAGAPVGSSPIRQRQAAGVPTPRREPQQPLYNFDGILECM”, the “soluble on expression in E. coli” value was “not soluble”. In the case of “MQLDEDDMIINIFWADDRSISDYNLFGDVICFEQLIRPMHMIDPLLICRGQSSQANSCVW”, the “soluble on expression in E. coli” value is reported as “not soluble”. In the case of “MQLFHKTVNRRGTHSIKWDTYKNEELIHAWIADMDFEVPQPIQTALKKRIEHPIFGYTLPPENIGDIICNWTKKQYNWDIQKEWIVFSAGIVPALSTSIQAFTKENESVLVQPPIYPPFFEMVTTNNRQLCVSPLQKQNDTYAIDFEHLEKQFQQGVKLMLLCSPHNPIGRVWKKEELTKLGSLCTKYNVIVVADEIHSDIIYADHTHTPFASLSEELAARTITCMAPSKTFNIAGLQASIIIIPNEKLRQAFTSIQYRQGFHGLNIFAYTAMQSAYTECNDWLNEIRFYIEDNAKFACEYIKDHIPTLSVMKPEGSFLLWIDCSALNLSQDERTKLLEEKGKIIVEPGEKYGLGGEEHIGINIGCPRSVLEEILNRLRHTFS”, the “soluble on expression in E. coli” value is reported as “soluble”. In the case of “MQMLRNVHPVTEIQVSANMAEVRARVDFKVGAKSNIDAEILSFHGLQSDKEHVAVIFKSADTTQEAPLVRMHSECLTGDVFHSSRCDCGEQLEETITRMGQSGGIILYLRQEGRGIGLYNKIDAYRLQSQGMNTYEANNHLGFGDDLRDFTEAAQMLQALGVKKIRLVTNNPKKIRELQEHGIEIVEVVHTSAHIKDGNENYLKAKVSHGKHQLKL”, the “soluble on expression in E. coli” value is reported as “not soluble”. In the case of “MQMQPKVGQFRYYPSVGSLNTYLTNMLEKIRVELPDIQRISFALYDEKKDSIKTCADSSPVSHDFVHYELPLANLPSLQQSKESGALRIIHDLANQAKSHTPHNRWLLEQQYCSSLVKPVFDQHTFVGFLFFNASMSHYFSASVVERLETYLSLIQQSICGEYALIHQLVDHVHQIETQSPEHWLHIKQHKERISRYARIIALDVADQYALDDELIENISQFATCHDLGKLALPADLLQKRASLANHEKEQVHNHIEYGIDLLNEVIAKLGTPHHPCLAVLREIMAYHHEFLDGSGYPFGLVSDQIPIPARIIAVANIFDALTAHRPYKQAQSIPHALLELEKMVSDGKLDRHCVNALRENQEELKEIVARFPEQDPKDQGITH”, the “soluble on expression in E. coli” value is reported as “not soluble”. With “MQPTPSEYARTPVRIEMQRSKERNSMVYKEMYNDAQRKYSEALDRISKLTDAYLREKAEVENFIKIKDREVEMSKKNANEKLLKDFLPVLDSIDAAIQAEKDNNLIRIRDQMLGVLSRYGLKPIKAEGSKFDPYLHEVVGVTADGEDGMVKYEVQRGYTLNDGVLRTSKVIVVKR” the “soluble on expression in E. coli” value was “not soluble”. In the case of “MQQDVSREHTINNGSSMADHDEHPIEQKEFYMLIGLDIGGTKIEICVLDKQGSMLYRQRIATPDNYSQFVDCVCSLIVDAEQATQPVDSIGIGLPGAVSPVTGLIKNANCTFLNGQDLSSDLQYRLGREVKLANDANCFALSEAIDGAGKESMVVFGAILGTGCGGSIVVNRQVLVGPNAICGEWGHNPLPGYHLEQDGAARYCYCGRQNCIERFISGSGFQDSYQALTGECITASEIMKRYKQQEPEAIHCYTQLIDHMARSFAGLVNVLDPDIIVLGGGLSNIDELYRDLPTATARHVFSDSAQVHFAKAVFGDSSGIRGAAWL”, the “soluble on expression in E. coli” value is reported as “not soluble”. For “MQQEALSFLSSSLPSLHHNFPSLSRLRFNNFPALSFKPNTSSSSSSFFKSPDIPSLSSTTTTTTTTETLESSIHEKLIYLDSLGIDFLTLINRHPPLLSTALSAVESVVDYMTTPPINFTLQDFRRLVSMCPELLTSPLTSHTIPVITFLLREVGVDSIFDLRQALRRRPRLLACSVDHQLRPTLYFLQRIGILDPHKHTYLLSCSVDNKLVPRIDYFEKLGFSRRSATAMFKRFPQLFNYSIAENYEPKLKYLMVEMGRDVREVLEFPQYFSFSLENRIKPRHEACAAKGVRFPLPVMLKTNEAGFRDTLEVCCDSSPPLKTSRLVTVQKDS”, the “soluble on expression in E. coli” value was “not soluble”. With “MQQLQNVIETAFERRADITPANVDTVTREAITHVIDLLDTGALRVAEKIDGQWVTHQWLKKAVLLSFRINDNQVMEGAETRYYDKVPMKFAGYDEARFQREGFRVVPPATVRKGAFIARNTVLMPSYVNIGAFVDEGTMVDTWATVGSCAQIGKNVHLSGGVGIGGVLEPLQANPTIIEDNCFVGARSEVVEGVIVEEGSVISMGVFIGQSTRIYDRETGEVHYGRVPAGSVVVSGNLPSKDGSYSLYCAVIVKKVDAKTRSKVGINELLRTID” the “soluble on expression in E. coli” value was “not soluble”. With “MQRARCYLIGETAVVLELEPPVTLASQKRIWRLAQRLVDMPNVVEAIPGMNNITVILRNPESLALDAIERLQRWWEESEALEPESRFIEIPVVYGGAGGPDLAVVAAHCGLSEKQVVELHSSVEYVVWFLGFQPGFPYLGSLPEQLHTPRRAEPRLLVPAGSVGIGGPQTGVYPLATPGGWQLIGHTSLSLFDPARDEPILLRPGDSVRFVPQKEGVC” the “soluble on expression in E. coli” value was “soluble”. In the case of “MQRLTSARLFKGAFNVGQKRATNASAGAAAVASRPQALPQPHQASTMTPPAAAPAVAAPQASLTRSASLVAPPSTSAPPSGAAPPMPKKKIIRRIIKRKKASAGVATGEAVHRAAAEAVSQTAAPAAPSEPAFAAATGAQPPRRGLAMLNAIRKHPEGSIEEQPQVVTEKHSEEMATAQEQYHEHTHDRHPAIQETEEAHEHHYHHDAASEKVTSSRYNAASAEAETDATGGSDAMDDATSNGSSSSRKTAMVKGYRIDEVGALCSSSDAMFARRLPSGGCQFFAWPGTPLSVASSAIVSMPDTIRTVHAVFGRAGTPIDIVMDIDAQVPQEYWTMSKIRVYQRKVLDDVLTPLKEEIEKIGEEIETQVVLQSPNLKKASFHVHTRLKDAAFADFYSLHGFLFRFQDRLPNVDLQIYRPNGMLRMFSCMKENRTSAIIVFDESKWNIGFPGGKVSDEQAALHSICVRDPSTFSRVLTFEAPRQSNMPAYGGSKGACGDGSEGALRPPQVLLPLTEKEAIESASRWLRQATEVEVGEWRTWIGLGLCAYRVAYHFRNARNLPRPAMAEMLDAWTEASRKCPLKFHSGECEARWAAFDPEKLGSQSDWWSAYKRLGRLEVPMREAMEREAAFAARCASRYQAAPAAEVPFAPEPPQSAAAVGSVTSASRKMKQQKKAFRRA”, the “soluble on expression in E. coli” value is reported as “not soluble”.
